Assay [1] concerns the target T1, P-S396 Tau in Alzheimer brain extracts (human, UniProt P10636 2-758, phosphoserine at 396).
T1 construct: Brain-derived; Defined by the western blot signal for P-S396; also called S-P396
Description: immunodepletion of AD brain extract, P-S396 western blot. How it is done:
FIG. 16. Quantification of P-S396 Tau western blot signal after immunodepleting Alzheimers diseased brain extracts using different amounts of hC10-2 variants N32S, N32Q, N32S_A101T, N32Q_ A101T, N32Q_D55E and N32S_ D55E.
Samples were boiled in 1×LDS loading buffer and 100 mM DTT. A volume corresponding to 3 μl of extracts were loaded on a 4-12% Bis-Tris NuPAGE Gel (LifeTech Novex). After electrophoresis, the proteins were blotted over to a ImmobilonFL PVDF membrane ([…], IPFL10100, Millipore). The membrane was blocked with SEA blocking buffer (Prod#37527, Thermo). Tau and P-tau levels were assessed in the samples using Tau5 (Abcam ab80579, 1:2000) mouse C10-2 (1 μg/ml), P-5199/202 (Invitrogen 44768 G, 1:1000), P-5422 (Abcam ab79415, 1:750), human IPN (1 μg/ml). Gapdh and actin were used as loading controls (Abcam ab9484, 1:2000, Sigma A5441, 1:20000). Secondary fluorophore conjugated IgG antibodies was used (IRDye 800CW Goat anti-Human, IRDye 800CW, Goat anti-rabbit, IRDye 680 Goat anti-mouse, LI-COR biosciences) and the signal was quantified using Odyssey CLx and Image studio software (LI-COR biosciences). Quantification of individual bands as well as signal in whole lanes was done and from this sigmoidal dose-response curves were plotted and when possible max effect and EC50 values were estimated.

In assay [2] the target is T2, Antibody N32S (hC10-2_N32S).
T2 construct: Variant of humanized C10-2 with light chain N32S; also called hC10-2_N325; C10-2_N325
Kind of assay: fluid phase peptide inhibition of antibody binding to peptide-coated MSD wells. Here is the method:
(§1) FIG. 2. Peptide inhibition assay illustrating apparent affinity hC10-2 and related C10-2 variants.
(§2) Plates were washed 5 times in (PBS, 0.1% BSA, 0.1% NP40) and anti-human total Tau (MSD sulfo tagged 1:50) was added to detect bound antibody which reflect non-inhibited free antibody.

The target in assay [3] is Antibody N32S, A101T (hC10-2_N32S_A101T). Described as above. How it is done:
as §1, §2

The target in assay [4] is T3, Antibody C10-2 (humanized C10-2).
T3 construct: also called human C10-2; hC10-2
Described as above. Here is the method: as §1, §2

Assay [5] deals with T4, pathological hyperphosphorylated tau from human Alzheimer's disease brain (AD-P3 antigens) (human, UniProt P10636 2-758, hyperphosphorylated; phosphoserine at 396).
T4 construct: Brain-derived material with a mixture of tau isoforms and aggregates; Also used for tangles stained in AD brain sections and for the S1, S1p and P3 fractions and lysates of AD brain; also called P3 tau isolated from human AD brains
Description: binding to tau isolated from diseased and healthy brains.

Residue numbers refer to the chain shown, from its start. Numbers in names are those of the source. Some results are limits rather than exact numbers.

As a reminder, the IC50 is the concentration that inhibits the measured activity by half. Read a high IC50 as weaker potency.

T1 sequence (P10636 other isoform, or with tags, fused parts or gaps limits assumed): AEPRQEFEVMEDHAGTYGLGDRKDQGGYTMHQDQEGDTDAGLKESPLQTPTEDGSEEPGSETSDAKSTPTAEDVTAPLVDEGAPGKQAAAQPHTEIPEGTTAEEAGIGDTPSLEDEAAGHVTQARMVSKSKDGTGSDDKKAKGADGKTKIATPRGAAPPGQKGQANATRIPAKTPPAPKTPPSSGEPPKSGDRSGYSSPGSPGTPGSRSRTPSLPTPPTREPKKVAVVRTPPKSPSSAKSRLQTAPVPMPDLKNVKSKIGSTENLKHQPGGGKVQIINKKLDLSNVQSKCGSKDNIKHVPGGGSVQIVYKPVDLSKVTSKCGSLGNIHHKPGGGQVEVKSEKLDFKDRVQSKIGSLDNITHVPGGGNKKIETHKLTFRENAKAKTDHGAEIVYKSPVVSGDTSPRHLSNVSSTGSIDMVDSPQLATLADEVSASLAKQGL
T4 sequence (P10636 other isoform, or with tags, fused parts or gaps limits assumed): as above

B1: Antibody N32Q (hC10-2_N32Q) (antibody, human IgG1, kappa, V domains shown)
VH: QVQLVQSGAEVVKPGASVKISCKASGYTFTDRTIHWVRQAPGQGLEWIGYIYPGDGSTKYSQKFQGRATLTADTSASTAYMELSSLRSEDTAVYYCARRGAMDYWGQGTSVTVSS
VL: DVQMTQSPSSLSASVGDRVTMTCQASQDTSIQLNWFQQKPGKAPKLLIYGASNLETGVPSRFSGSRSGTDFTLTISSLQPEDMATYYCLQHTYLPFTFGSGTKLEIKR
In the case of B1, the “percent decrease in the S-P396 signal at 75 ng antibody” value (“percent decrease in the S-P396 signal” below) in assay [1] was not below 28%.

B2: hC10-2 variant N32S_D55E (antibody, human IgG1, kappa, V domains shown)
VH: B1 VH with D55E
VL: B1 VL with Q32S
notes: Chains are put together from the variant names: light chain N32S and heavy chain D55E; also called C10-2_N32S D55E
In the case of B2, the “percent decrease in the S-P396 signal” value in assay [1] was not below 28%.

B3: Antibody N32Q, A101T (hC10-2_N32Q_A101T) (antibody, human IgG1, kappa, V domains shown)
VH: B1 VH with A101T
VL: B1 VL
For the molecule B3, in assay [1], the “percent decrease in the S-P396 signal” value is not below 28%.

B4: hC10-2 variant N32Q_D55E (antibody, human IgG1, kappa, V domains shown)
VH: B1 VH with D55E
VL: B1 VL
notes: Chains are put together from the variant names: light chain N32Q and heavy chain D55E
Turning to B4, the “percent decrease in the S-P396 signal” value in assay [1] is 16%.

B5: Ptau (P396) 386-408 peptide (peptide)
peptide: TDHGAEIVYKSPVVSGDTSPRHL
modifications: phosphoserine at 396 (tau numbering)
On to B5, for which the figures for the 50% inhibitory concentration (IC50) in assay [2], in assay [3] and in assay [4] were 50 nM, 34 nM and 24 nM, respectively.

B6: IPN002 (antibody, V domains shown)
VH: EVHLVESGGALVKPGGSLKLSCAASGFSFSKYGMSWVRQTPDKRLEWVATISSSGSRTYYPDSVKGQFTISRDNAKNTLYLQMSSLKSEDTAMYYCSISWDGAMDYWGQGTSVTVSS
VL: DVLMTQTPLSLPVSLGDQASISCKSSQSIVHSNGNTYLEWYLQKPGQSPKLLVYKVSNRFSGVPDRFSGSGSGTDFTLKISRVEAEDLGTYYCFQGSLVPWAFGGGTKLEIK
In the case of B6, the “AD/ctrl (binding to tau from AD brain over tau from healthy control brain)” value in assay [5] turned out to be 3 ratio.

B7: HJ8.5 (antibody, V domains shown)
VH: EVKVEESGGGLVQPGGSMKLSCVVSGFTFSNYWVNWVRQSPEKGLEWVAQIRLKSDNYATHYEESVKGRFTISRDDSKSSVYLQMNNLRAEDSGIYYCTNWEDYWGQGTTLTVSS
VL: DIVLTQSPASLAVSLGQRATISCRASQSVSTSRYSYIHWYQQKPGQPPKLLIKYASNLESGVPARFSGSGSGTDFTLNIHPLEEEDAATYYCHHSWEIPLTFGAGTKLELK
On to B7, for which the “AD/ctrl (binding to tau from AD brain over tau from healthy control brain)” value in assay [5] was determined as 3 ratio.

The values above are taken from patent US20190330320A1 (H LUNDBECK A S, published 2019).
